Experimental data: article PMC12623338

These sequences were tested on T1, CrsR (response regulator of CrsRK) (Actinosynnema pretiosum X47), ORF:a04a2703 (assay: EMSA). Conditions: EMSA: 50-100 fmol probe, 0.5-1 ug CrsR, binding buffer with poly(dI-dC) (salt and pH not stated), 20 min at room temperature, 8% native PAGE; protein dialyzed ….
T1 sequence: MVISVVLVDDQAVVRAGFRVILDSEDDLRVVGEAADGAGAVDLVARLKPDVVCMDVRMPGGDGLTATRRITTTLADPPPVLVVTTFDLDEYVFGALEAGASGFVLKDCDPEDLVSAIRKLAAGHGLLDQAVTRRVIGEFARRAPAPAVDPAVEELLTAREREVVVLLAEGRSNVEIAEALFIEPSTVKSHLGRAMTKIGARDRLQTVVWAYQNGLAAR

Row | Sequence | binding
1 | CGGTCCACCAGCCGCATCCCTCGCCTCCCCCGCGTCCGCCCCGCCGACCTTCAGGCATGTCAACAGCCCTGTCAGTCGTCTTGTCCACGCCCCGACCACCGCACCCCCACTGGCCGCCCACCCGCGCCGGGAAAACCACGAAGTCCCCTGCCGCGCGGGCGTCCCAGGTCGGACACTCCTGAGCGCACCCCCGCACCCGTTCCAGGAGGC (double strand) [asm7 promoter probe] | no binding
2 | CGGACAGACCGATCCCCGAGTCGTGCGGGCCCGAGCCGTGGACGCGCGGGCCGTGGACGCGCGAGCCGCGACCGCCGCCCCCACGACCGCCGCCCCCACGACCGCCGCTCCGGCGACCACTGCTCCGGCGACCGCCGCTCCGGCGACCGCCGCTCCGGCGACCGCCGCTCCGGCGACCGCCGCCCCCACGACCACTCCTCCGCGCCCCCGCGTCCCCCAGGCCCCCGCGCCCCACCGGCACGTTCCGGGCGCGACCTACGACCGGGCCGTGCTGTTCGACCTCGACGGG (double strand) [asm45 promoter probe (asm45-47)] | binds
3 | CCGGTTCCCGTTCATCCAATTGTGCGCACGACCGCGCCGCCGTGCCCGCGTGCTGCGGTGATGGCCTGGGAACAGGGGGGATTAGGGGGAGGTCAAGGGGGTTGGTCGGGATCTGCGGAATCGGTAGCGTCGAATTCCGAAAGCCGGCCGCGGTGAATTCCCCCGCGCCATTTCCGCGAACGACGGGACAGGGGCTCATGGGCA (double strand) [asm43 promoter probe (asm43-44)] | binds
4 | GGAGGGACGAGCGGAGACCGGGTCGCGGGACTCCACTTCGGACGGTAGGGCACGCGGGCGCCGTTGGCAGTTGCCGCTTCCACGGCTGGCGAACAAAGCGGTAATCCCTTGCGCCACAGGCGATTGACACCCCGGCGAGGCCCTGGTTTCACTGCTGTCCGCACGTCACCGGCGCGAGGAGGCCCCCGTGAAGTACATGCTGCTCATCCAC (double strand) [asm21 promoter probe] | binds
5 | TGACGGCGTCGGGTGAGGCCGCCGCTGGCCCTGGGACGGCGCTGCGCGCCCCCTCGGACCCACCGGAGCCGCCACCACCGCTTGTCCCCTTCCACCGGGTGGGGCGCGGTCGGTAATCCGGCGGCAATTCCTTCCCCCGTCCGGGCTAGCCAGGCCCGTGCGCCCGCGTCGCGCACGGGCCAAGGTGGGTGGCTGCGCGGATGACCGGGCCCCCGAACCGGATGTGGGAGAGATGCTGCGAAGCGAC (double strand) [asmA promoter probe] | no binding
6 | ACTCGGTCGCCGTGGTCATGGCTACAGCCAACAACCTCGACCATGGTGGAGGTCAACAGTAAGGTTGAGCTGGTGAGCAAGTTGCCGGAGATGTTGACCATCGGCCAGGTCGCCGAGCGCAGCGGGGTGCCCCACACGGCGCTGCGGTTCTACGAGGAGCGCGGGCTGATCGCCTCGGAGCGCACGGCGGGCAACCAGCGCCGCTACCCCAGGCACGTGCTGCGCAGGCTCGCGTTCATCCGCACCGCGCAGCGGGTCGGGCTGAGCCTGGAGGAGGTGCG (double strand) [asm13 promoter probe (asm13-15, asm10-12)] | no binding
7 | GGTCGGGCACCAGGAACACCTCGCAGAGCGCAAAGACGTGAGTGGACGGTGCGATTGTGCTGACGGCCTGACCCCGGTGGTGGGGACCGCGGCGAACCGGCTGAACGCAGGGGGGACCTAGGGGGGCGTCAGGGGGTTGGGGGGCTCTTCCGGCCGCCGTTAGCTTCGGGCCGCGCACCGGCCCCCGGAGAGCGCGCCGGACCGAGAGCAGAGACGAGGGCGACCGACCGTGCACCTGAAGGCCCCGCAGAAGCT (double strand) [asm24 promoter probe] | no binding
